According to paper PMC8523169, “Competitive binding of MatP and topoisomerase IV to the MukB hinge domain” (eLife, 2021):

Experiments:
[1] = target: T1, full-length ParC, N-terminal 6xHis-tag (E. coli, UniProt P0AFI2 1-752); test: SEC; topoIV reconstitution: equimolar ParC and ParE, 30 min on ice, verified in analytical SEC; conditions: both partners purified
T1 construct: ParC subunit of topoisomerase IV, E. coli, full length; also called His-ParC; ParC2; source: overexpressed, purified as previously published (Nolivos et al., 2016) with an added SEC step; not shown: His6, N-terminal, kept
T1 sequence (looked up): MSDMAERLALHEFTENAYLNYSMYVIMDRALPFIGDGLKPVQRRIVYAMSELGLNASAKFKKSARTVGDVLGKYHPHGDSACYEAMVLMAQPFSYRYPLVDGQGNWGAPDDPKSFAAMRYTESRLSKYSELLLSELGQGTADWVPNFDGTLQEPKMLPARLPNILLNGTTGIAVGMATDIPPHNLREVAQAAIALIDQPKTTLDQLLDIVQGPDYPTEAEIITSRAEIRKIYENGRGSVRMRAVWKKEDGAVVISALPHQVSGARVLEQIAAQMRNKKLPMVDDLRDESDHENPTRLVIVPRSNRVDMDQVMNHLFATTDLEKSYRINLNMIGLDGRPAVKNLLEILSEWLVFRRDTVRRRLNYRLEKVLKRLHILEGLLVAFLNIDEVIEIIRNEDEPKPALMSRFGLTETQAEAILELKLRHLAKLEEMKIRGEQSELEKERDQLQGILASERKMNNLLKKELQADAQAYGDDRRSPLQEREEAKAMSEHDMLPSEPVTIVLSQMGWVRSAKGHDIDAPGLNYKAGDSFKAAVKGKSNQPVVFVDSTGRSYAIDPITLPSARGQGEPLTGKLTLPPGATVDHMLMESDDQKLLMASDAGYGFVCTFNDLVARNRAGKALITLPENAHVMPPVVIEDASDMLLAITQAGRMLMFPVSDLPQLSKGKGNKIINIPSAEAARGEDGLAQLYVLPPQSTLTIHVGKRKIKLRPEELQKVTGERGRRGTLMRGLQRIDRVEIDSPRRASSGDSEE

[2] = target: the molecule itself; test: native MS; proteins buffer exchanged into 200 mM ammonium acetate pH 8.0, alone or mixed in different ratios (two or three components, with or without 50 bp DNA), 10 min on ice

- binding result [1]: binds
B1: ParE-His (enzyme, E. coli, UniProt P20083 1-630, looked up)
chain: MTQTYNADAIEVLTGLEPVRRRPGMYTDTTRPNHLGQEVIDNSVDEALAGHAKRVDVILHADQSLEVIDDGRGMPVDIHPEEGVPAVELILCRLHAGGKFSNKNYQFSGGLHGVGISVVNALSKRVEVNVRRDGQVYNIAFENGEKVQDLQVVGTCGKRNTGTSVHFWPDETFFDSPRFSVSRLTHVLKAKAVLCPGVEITFKDEINNTEQRWCYQDGLNDYLAEAVNGLPTLPEKPFIGNFAGDTEAVDWALLWLPEGGELLTESYVNLIPTMQGGTHVNGLRQGLLDAMREFCEYRNILPRGVKLSAEDIWDRCAYVLSVKMQDPQFAGQTKERLSSRQCAAFVSGVVKDAFILWLNQNVQAAELLAEMAISSAQRRMRAAKKVVRKKLTSGPALPGKLADCTAQDLNRTELFLVEGDSAGGSAKQARDREYQAIMPLKGKILNTWEVSSDEVLASQEVHDISVAIGIDPDSDDLSQLRYGKICILADADSDGLHIATLLCALFVKHFRALVKHGHVYVALPPLYRIDLGKEVYYALTEEEKEGVLEQLKRKKGKPNVQRFKGLGEMNPMQLRETTLDPNTRRLVQLTIDDEDDQRTDAMMDMLLAKKRSEDRRNWLQEKGDMAEIEV
notes: ParE subunit of topoisomerase IV, E. coli; source: overexpressed, purified (TALON, HiTrap Q XL, SEC)
- stoichiometry N [2]: 2
